Data: patent US20050260575, “Method for identifying substances useful for treating inflammation using the response element to the ikbalpha ror receptor” (published 2005)

T1: RORα1 (Homo sapiens, UniProt P35398 P35398:1-523)
T1 sequence: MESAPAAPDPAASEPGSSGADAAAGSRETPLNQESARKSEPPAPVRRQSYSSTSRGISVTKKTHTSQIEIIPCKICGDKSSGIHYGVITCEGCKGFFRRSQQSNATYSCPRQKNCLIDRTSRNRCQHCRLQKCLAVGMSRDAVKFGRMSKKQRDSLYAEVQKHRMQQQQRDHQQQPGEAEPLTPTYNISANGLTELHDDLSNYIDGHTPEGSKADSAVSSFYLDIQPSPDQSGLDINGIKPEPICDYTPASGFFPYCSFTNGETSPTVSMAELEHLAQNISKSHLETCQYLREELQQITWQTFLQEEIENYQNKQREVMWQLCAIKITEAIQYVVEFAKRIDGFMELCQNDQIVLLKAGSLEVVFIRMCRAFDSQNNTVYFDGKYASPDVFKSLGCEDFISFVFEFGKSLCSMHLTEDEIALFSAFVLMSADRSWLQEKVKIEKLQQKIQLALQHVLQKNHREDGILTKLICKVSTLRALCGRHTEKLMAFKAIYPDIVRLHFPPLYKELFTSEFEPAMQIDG

B1: IκBα-RORE (dsDNA)
DNA 1: GAGCACAATGTAGGTCAGATAG
DNA 2: CTATCTGACCTACATTGTGCTC
B2: IκBα-RORE mutant (dsDNA)
DNA 1: GAGCACAATGTACCTCAGATAG
DNA 2: CTATCTGAGGTACATTGTGCTC

Assays:
RORα1 [1] = target: T1, RORα1; assay: EMSA; supershift with RORα1 antibody; native competitor 1x-100x; exact probe length not stated; details: tags: TNT-T7 Promega; hRORα1; label: labelled probe
Method: (§1) FIG. 6C depicts the gel shift experiments conducted by using the in vitro translated RORαl protein (TNT-T7 Promega) and an IκBα-RORE labelled probe. […] To […] the mobility of the complex, 1 μl of RORα1 antibody was added to the binding reaction (S: shift of the complex; SS: super-shift of the complex; FP: unbound probe).
(§2) It has been shown that the negative dominant RORαΔ235 missing the LBD domain inhibits RORα1-induced transcription by competing with the same DNA binding domain (Mc Broom, L. D. B., Flock, G. and Giguère, V., Mol. Cell. Biol. 1995, 15: 796-808). The effect of this mutant on the promoter under the control of the IκBα gene RORE inducible by RORα1 was tested. Cotransfection with RORαΔ235 abolished the effect of RORα1 (FIG. 6B). […] Finally, binding of RORα1 to its response element RORE was checked by gel shift assays, using in vitro translated RORα1 protein.

RORα1 [2] = target: T1, RORα1; assay: competition; unlabelled mutated competitor 1x-100x used as specificity control; full oligo sequence not stated, SEQ 15 matches the ACCTCA mutation; details: tags: TNT-T7 Promega; hRORα1
Method: as §1, §2

Binder | binding result (RORα1 [1]) | binding result (RORα1 [2])
B1 | binds | 
B2 |  | no binding
